Source: PMC9435400

How the values were obtained:
Experiment in all cases: SEC
[1] = target: BM48-31 soluble spike ectodomain (2P, GSAS, T4 fibritin trimerization motif) (BM48-31 (sarbecovirus) | bacteriophage T4)
[2] = target: BtKY72 soluble spike ectodomain (2P, GSAS, T4 fibritin trimerization motif) (BtKY72 (sarbecovirus) | bacteriophage T4)
[3] = target: Pang17 soluble spike ectodomain (2P, GSAS, T4 fibritin trimerization motif) (pang17 (sarbecovirus of pangolins) | bacteriophage T4)
[4] = target: Rf1 soluble spike ectodomain (2P, GSAS, T4 fibritin trimerization motif) (Rf1 (sarbecovirus) | bacteriophage T4)
[5] = target: RmYN02 soluble spike ectodomain (2P, GSAS, T4 fibritin trimerization motif) (RmYN02 (sarbecovirus) | bacteriophage T4)
[6] = target: Rs4081 soluble spike ectodomain (2P, GSAS, T4 fibritin trimerization motif) (Rs4081 (sarbecovirus) | bacteriophage T4)
[7] = target: SARS-CoV-1 soluble spike ectodomain (2P, GSAS, T4 fibritin trimerization motif) (SARS-CoV-1 | bacteriophage T4) (UniProt P59594)
[8] = target: Yun11 soluble spike ectodomain (2P, GSAS, T4 fibritin trimerization motif) (Yun11 (sarbecovirus) | bacteriophage T4)

BM48-31 soluble spike ectodomain (2P, GSAS, T4 fibritin trimerization motif) (domain or fragment)
stoichiometry N [1]: 3

BtKY72 soluble spike ectodomain (2P, GSAS, T4 fibritin trimerization motif) (domain or fragment)
stoichiometry N [2]: 3

Pang17 soluble spike ectodomain (2P, GSAS, T4 fibritin trimerization motif) (domain or fragment)
stoichiometry N [3]: 3

Rf1 soluble spike ectodomain (2P, GSAS, T4 fibritin trimerization motif) (domain or fragment)
stoichiometry N [4]: 3

RmYN02 soluble spike ectodomain (2P, GSAS, T4 fibritin trimerization motif) (domain or fragment)
stoichiometry N [5]: 3

Rs4081 soluble spike ectodomain (2P, GSAS, T4 fibritin trimerization motif) (domain or fragment)
stoichiometry N [6]: 3

SARS-CoV-1 soluble spike ectodomain (2P, GSAS, T4 fibritin trimerization motif) (from UniProt P59594 14-1190) (domain or fragment)
stoichiometry N [7]: 3

Yun11 soluble spike ectodomain (2P, GSAS, T4 fibritin trimerization motif) (domain or fragment)
stoichiometry N [8]: 3
